Measurements published in patent publication US20030186841A1.

What was measured:
Assay in all cases: cell-based or functional assay
Cf2-PBD-VP64 (human) = Cf2-PBD-VP64 (human) (UniProt P06401)
ER-KRAB (mouse; human) = ER-KRAB (mouse; human) (UniProt P19785)
ER-VP64 (mouse) = ER-VP64 (mouse) (UniProt P19785)

Sequence of ER-KRAB (mouse; human) (P19785 other isoform, or with tags, fused parts or gaps): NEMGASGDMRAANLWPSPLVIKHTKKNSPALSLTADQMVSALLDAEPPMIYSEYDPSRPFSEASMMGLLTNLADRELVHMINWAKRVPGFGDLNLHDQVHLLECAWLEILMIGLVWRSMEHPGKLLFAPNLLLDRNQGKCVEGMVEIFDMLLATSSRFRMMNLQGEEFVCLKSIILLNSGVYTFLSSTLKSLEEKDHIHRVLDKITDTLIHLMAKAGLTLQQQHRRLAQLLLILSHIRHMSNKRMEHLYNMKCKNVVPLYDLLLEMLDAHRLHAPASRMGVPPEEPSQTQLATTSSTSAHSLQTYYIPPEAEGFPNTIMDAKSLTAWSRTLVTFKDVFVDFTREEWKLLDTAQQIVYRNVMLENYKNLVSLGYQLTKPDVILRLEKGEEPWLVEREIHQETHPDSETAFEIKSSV
Sequence of C7-PBD-VP64 (P06401 640-914): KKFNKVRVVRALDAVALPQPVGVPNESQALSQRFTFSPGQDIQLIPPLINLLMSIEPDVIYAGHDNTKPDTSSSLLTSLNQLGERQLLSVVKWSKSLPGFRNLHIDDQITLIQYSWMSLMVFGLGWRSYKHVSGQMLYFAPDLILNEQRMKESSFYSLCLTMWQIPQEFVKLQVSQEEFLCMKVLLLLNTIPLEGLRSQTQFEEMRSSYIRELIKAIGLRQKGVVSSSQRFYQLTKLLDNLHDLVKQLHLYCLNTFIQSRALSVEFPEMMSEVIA
Sequence of Cf2-PBD-VP64 (human) (P06401 640-914): as above

Substance | luciferase assay, C7-Cf2 TATA reporter, ligand-dependent change in transcription (Cf2-PBD-VP64 (human)) | luciferase assay, tamoxifen-dependent repression of the erbB-2 promoter (ER-KRAB (mouse; human)) | luciferase assay, erbB-2 promoter activity in HeLa cells, with and without Tamoxifen (ER-VP64 (mouse)) | luciferase assay, tamoxifen-dependent activation of the erbB-2 promoter (ER-VP64 (mouse))
C7-PBD-VP64 (from UniProt P06401 640-914) | 2 fold |  |  | 
E2C-ER (from UniProt P19785 282-599) |  | 2.9 fold | 3 fold | 5.3 fold
